One substance from patent publication US7745159 can be followed below.

For test [1], the target named is antigen defined by MAb OV569 on human carcinoma cell surfaces (human). In words: flow cytometry, OV569 supernatant on ovarian carcinoma line H4004, against an irrelevant MAb. (In flow cytometry, cells or beads pass a laser one at a time.)
The target is the same in test [2]. In words: flow cytometry, OV569 supernatant on lung carcinoma line H2981, against an irrelevant MAb.
The target is the same in test [3]. In words: flow cytometry, OV569 supernatant on ovarian carcinoma line H4007, against an irrelevant MAb.
For test [4] the target is unchanged. Briefly: flow cytometry, OV569 supernatant on ovarian carcinoma line H4002, against an irrelevant MAb.
Test [5] shares this target. Briefly: flow cytometry, OV569 supernatant on ovarian carcinoma line H3538, against an irrelevant MAb.
For test [6] the target is unchanged. In words: flow cytometry, OV569 supernatant on ovarian carcinoma line H3909, against an irrelevant MAb.
For test [7] the target is unchanged. Briefly: flow cytometry, OV569 supernatant on lung carcinoma line H3776, against an irrelevant MAb.
Test [8] has the same target. In words: flow cytometry, OV569 supernatant on ovarian carcinoma line H3633, against an irrelevant MAb.
The target is the same in test [9]. Briefly: flow cytometry, OV569 supernatant on ovarian carcinoma line H3659.5, against an irrelevant MAb.
Test [10] shares this target. In words: flow cytometry, OV569 supernatant on lung carcinoma line H3754, against an irrelevant MAb.
Test [11] has the same target. In words: flow cytometry, OV569 supernatant on ovarian carcinoma line H4010-1, against an irrelevant MAb.
Test [12] has the same target. In words: flow cytometry, OV569 supernatant on ovarian carcinoma line H4014, against an irrelevant MAb.
For test [13] the target is unchanged. In words: flow cytometry, OV569 supernatant on lung carcinoma line H3963, against an irrelevant MAb.
For test [14] the target is unchanged. In words: flow cytometry, OV569 supernatant on ovarian carcinoma line H3750, against an irrelevant MAb.
For test [15] the target is unchanged. Briefly: flow cytometry, OV569 supernatant on ovarian carcinoma line H3759, against an irrelevant MAb.
The target is the same in test [16]. Briefly: flow cytometry, OV569 supernatant on ovarian carcinoma line H4006, against an irrelevant MAb.
Test [17] has the same target. In words: flow cytometry, OV569 supernatant on lung carcinoma line H4013, against an irrelevant MAb.
Test [18] has the same target. Briefly: flow cytometry, OV569 supernatant on ovarian carcinoma line H3907, against an irrelevant MAb.
Test [19] has the same target. Briefly: flow cytometry, OV569 supernatant on ovarian carcinoma line H4012, against an irrelevant MAb.
For test [20] the target is unchanged. Briefly: flow cytometry, OV569 supernatant on lung carcinoma line H2987, against an irrelevant MAb.

Turning to monoclonal antibody OV569, the LFE(sample)/LFE(control) worked out at 2.43 in [1]; 1.3 in test [2]; 8.72 in test [3]; 8.48 in test [4]; 2.55 in test [5]; 3.84 in test [6]. In addition, the LFE(sample)/LFE(control) in test [7] came out at 1.33; in test [8] it was 1; in test [9], 5.63; in test [10], 1.59; in test [11], 1.12; in test [12], 1. In addition, the LFE(sample)/LFE(control) worked out at 1.11 in [13]; 2.57 in test [14]; 6.74 in [15]; 2.53 in [16]; 7 in test [17]; 3.85 in test [18]. For the same substance, the figures for the LFE(sample)/LFE(control) in [19] and in test [20] were 1 and 1.25, respectively.
